Substitutions are numbered along the chain they refer to.
B1: m-TAMRA-labeled Nb42 (VHH)
VHH: QVQLVESGGGLVQAGGSLRLSCAASGDVNYAVGWFRQAPRKEREFVAAINWRGDNTDYTDSVKGRFTISRDNAKNTVYLQMNSLKPEDTAVYYCAAKSAPYWYSDIAPDYWGQGTQVTVSS
B2: Nb38 (VHH)
VHH: QVQLVESGGGLVQPGGSLRLSCAASGSIRSIATSAWYRQPPGKQRELVAGISSGTTTNYADSVKGRFTISRDNAKNTVYLQMNSLKPEDTAVYYCHAWISGTWISGQGTQVTVSS
B3: Nb36 (VHH)
VHH: B2 VHH with A32T, Y37F, T56S, A97V, I104Y
B4: Nb17 (VHH)
VHH: QVQLVESGGGLVQPGGSLRLSCAASGSNIGYMAWYRQAPGSQRELVARIASGGSANYADSVKGRFTISRDNVKNTVYLHMNSLKPVDTAVYYCHADAWYNSRWSDYWGQGTQVTVSS
B5: Nb1 (VHH)
VHH: QVQLVESGGGLVQAGGSLRLSCVASGRIFSGNAMGWYRQAPGRQRELVAGITNGGYTNYRQFVKGRFTISRDNAKRTVYLQMNSLKPEDTAVYYCNALDREARQVDYWGQGTQVTVSS
B6: Nb39 (VHH)
VHH: QVQLVESGGGLVQAGGSLRLSCRASGGTFSTYAMGWFRQVPGKERETVAAVKWSGDMTYYADSVKGRFTISRDNAKNTVYLQMNSLRPEDTAVYYCAARRGLSYYRGPSEYDYWGQGTQVTVSS
B7: Nb22 (VHH)
VHH: QVQLVESGGGLVQAGGSLRLSCAASGRTFSSYTMGWFRQAPGKEREFVAAIRWSGGSTYYADSVKGRFTISRDNAKNTVYLQMNSLKPEDTAVYYCAASDRGGFIATSGGWMDYWGKGTQVTVSS
B8: Nb23 (VHH)
VHH: QVQLVESGGGLVQAGGSLRLSCAASGRTFSRYTMGWFRQAPGKDREFVARITTSGAVTTYADSAKGRFTISRDNAKNTVYLQMNTLKPEDTAVYYCAAGQGQLSSQSRFVDYWGQGTQVTVSS
B9: Nb6 (VHH)
VHH: QVQLVESGGGLVQAGGSLRLSCAASGSIFSPTAMGWYRQAPGKERELVAGITSGGYTNYRNFARGRFTISRDNAKKTVYLQMNSLNPEDTAVYYCNTLTISWSWGQGTQVTVSS
B10: Nb40 (VHH)
VHH: QVQLVESGGGLVQPGGSLRLSCVASGTIYAINRMGWYRQAPGKQRELVALITLGGGTNYGDSVKGRFTISRDNAKNTGYLQMNSLKPEDTAVYYCKVESSGYTDVFWGQGTQVTVSS
B11: Nb42 (VHH)
VHH: B1 VHH
B12: m-TAMRA-labeled Nb1 (VHH)
VHH: B5 VHH
B13: m-TAMRA-labeled Nb36 (VHH)
VHH: B2 VHH with A32T, Y37F, T56S, A97V, I104Y
B14: m-TAMRA-labeled Nb38 (VHH)
VHH: B2 VHH
B15: m-TAMRA-labeled Nb39 (VHH)
VHH: B6 VHH
B16: m-TAMRA-labeled Nb22 (VHH)
VHH: B7 VHH
B17: m-TAMRA-labeled Nb17 (VHH)
VHH: B4 VHH
B18: m-TAMRA-labeled Nb6 (VHH)
VHH: B9 VHH
B19: m-TAMRA-labeled Nb40 (VHH)
VHH: B10 VHH

The binders below were run against T1, full-length human LRRK2 (leucine-rich repeat kinase 2) (human, UniProt Q5S007) (assay: MST).

Kd [nM] | Binder
94 ± 30 | B1

What follows are binders tested against LRRK2 N-terminal armadillo (ARM) domain construct (Homo sapiens, UniProt Q5S007) (assay: ELISA).

binding result | Binder
no binding | B2
no binding | B3
no binding | B4

The binders below were run against T1, full-length human LRRK2 (leucine-rich …) (assay: ELISA).

EC50 [nM] | EC50 in presence of Rab8a (20 µM) [nM] | Binder
~3 | ~5 | B4

Each binder was assayed against endogenous (mouse) LRRK2 (Mus musculus, UniProt Q5S006) (assay: pull-down).
Chain of endogenous (mouse) LRRK2 (Q5S006 whole entry): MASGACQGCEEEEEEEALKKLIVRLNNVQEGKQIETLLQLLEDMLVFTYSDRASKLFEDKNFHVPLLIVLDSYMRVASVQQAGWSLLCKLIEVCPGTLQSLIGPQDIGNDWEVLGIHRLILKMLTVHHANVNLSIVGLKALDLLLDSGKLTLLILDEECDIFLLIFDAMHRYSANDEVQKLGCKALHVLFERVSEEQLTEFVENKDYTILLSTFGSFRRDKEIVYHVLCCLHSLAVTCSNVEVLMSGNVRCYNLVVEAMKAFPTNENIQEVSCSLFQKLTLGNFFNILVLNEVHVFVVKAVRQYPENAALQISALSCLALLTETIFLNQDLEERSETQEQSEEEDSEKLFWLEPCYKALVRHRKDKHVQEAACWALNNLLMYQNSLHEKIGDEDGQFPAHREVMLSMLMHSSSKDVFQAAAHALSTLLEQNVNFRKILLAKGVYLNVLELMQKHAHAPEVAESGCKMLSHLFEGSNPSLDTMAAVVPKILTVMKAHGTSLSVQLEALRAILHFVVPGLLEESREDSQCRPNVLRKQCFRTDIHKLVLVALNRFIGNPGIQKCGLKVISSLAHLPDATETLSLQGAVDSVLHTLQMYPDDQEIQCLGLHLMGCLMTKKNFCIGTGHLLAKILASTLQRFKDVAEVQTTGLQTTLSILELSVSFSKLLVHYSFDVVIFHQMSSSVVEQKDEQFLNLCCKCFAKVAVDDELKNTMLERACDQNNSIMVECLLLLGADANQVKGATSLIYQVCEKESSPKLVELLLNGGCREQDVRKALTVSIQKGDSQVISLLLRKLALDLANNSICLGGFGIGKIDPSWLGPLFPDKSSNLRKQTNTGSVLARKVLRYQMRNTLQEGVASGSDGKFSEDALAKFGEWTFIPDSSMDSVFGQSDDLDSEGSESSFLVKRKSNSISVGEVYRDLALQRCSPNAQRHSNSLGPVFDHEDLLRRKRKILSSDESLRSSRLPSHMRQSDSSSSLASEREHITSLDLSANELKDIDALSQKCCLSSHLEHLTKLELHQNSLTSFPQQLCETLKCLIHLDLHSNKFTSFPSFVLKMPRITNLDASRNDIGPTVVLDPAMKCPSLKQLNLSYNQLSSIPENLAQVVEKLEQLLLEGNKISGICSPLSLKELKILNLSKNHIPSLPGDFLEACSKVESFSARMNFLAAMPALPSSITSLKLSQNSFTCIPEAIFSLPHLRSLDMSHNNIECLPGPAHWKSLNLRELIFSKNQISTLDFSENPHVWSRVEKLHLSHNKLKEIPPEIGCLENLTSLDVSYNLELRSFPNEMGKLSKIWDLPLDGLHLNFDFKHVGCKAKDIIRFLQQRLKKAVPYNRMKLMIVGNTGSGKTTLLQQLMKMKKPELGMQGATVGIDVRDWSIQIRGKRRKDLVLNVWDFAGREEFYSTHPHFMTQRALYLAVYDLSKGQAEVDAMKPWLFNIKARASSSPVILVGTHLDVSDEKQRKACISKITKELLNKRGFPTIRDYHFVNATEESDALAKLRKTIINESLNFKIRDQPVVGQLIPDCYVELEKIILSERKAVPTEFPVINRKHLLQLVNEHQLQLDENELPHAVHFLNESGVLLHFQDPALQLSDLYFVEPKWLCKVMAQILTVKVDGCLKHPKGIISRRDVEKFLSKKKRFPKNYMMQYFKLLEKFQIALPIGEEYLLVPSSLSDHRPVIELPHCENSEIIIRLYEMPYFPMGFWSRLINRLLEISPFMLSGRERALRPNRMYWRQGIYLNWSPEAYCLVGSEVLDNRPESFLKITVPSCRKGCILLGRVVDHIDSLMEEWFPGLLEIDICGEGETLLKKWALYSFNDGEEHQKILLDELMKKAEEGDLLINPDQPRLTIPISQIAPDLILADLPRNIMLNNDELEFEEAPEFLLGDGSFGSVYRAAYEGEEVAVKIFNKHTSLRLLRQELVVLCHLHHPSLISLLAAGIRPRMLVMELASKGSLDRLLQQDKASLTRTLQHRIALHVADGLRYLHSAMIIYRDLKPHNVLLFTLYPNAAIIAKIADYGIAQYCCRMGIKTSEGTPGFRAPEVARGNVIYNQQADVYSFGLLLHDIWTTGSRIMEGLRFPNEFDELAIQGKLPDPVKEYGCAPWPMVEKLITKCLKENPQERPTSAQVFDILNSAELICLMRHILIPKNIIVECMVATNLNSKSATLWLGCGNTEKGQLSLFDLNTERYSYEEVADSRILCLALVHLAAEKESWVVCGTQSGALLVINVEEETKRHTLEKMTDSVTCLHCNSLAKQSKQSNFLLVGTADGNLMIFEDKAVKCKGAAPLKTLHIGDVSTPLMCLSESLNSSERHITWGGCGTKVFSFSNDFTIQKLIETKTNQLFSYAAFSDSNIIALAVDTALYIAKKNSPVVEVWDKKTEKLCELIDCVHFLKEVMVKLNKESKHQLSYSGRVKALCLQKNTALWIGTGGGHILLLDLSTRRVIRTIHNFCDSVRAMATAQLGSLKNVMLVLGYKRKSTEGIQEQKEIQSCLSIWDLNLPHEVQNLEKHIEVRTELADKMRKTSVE

binding result | Binder
binds | B5
binds | B2
binds | B3
binds | B6
binds | B7
binds | B8
binds | B4
binds | B9
binds | B10
binds | B11

The binders below were run against LRRK2 RocCOR domain construct (Homo sapiens, UniProt Q5S007) (assay: ELISA).

binding result | Binder
no binding | B2
no binding | B3
no binding | B6
no binding | B4

The binders below were run against LRRK2 Roc domain (Homo sapiens, UniProt Q5S007) (assay: ELISA).
Chain of LRRK2 Roc domain (Q5S007 1328-1511): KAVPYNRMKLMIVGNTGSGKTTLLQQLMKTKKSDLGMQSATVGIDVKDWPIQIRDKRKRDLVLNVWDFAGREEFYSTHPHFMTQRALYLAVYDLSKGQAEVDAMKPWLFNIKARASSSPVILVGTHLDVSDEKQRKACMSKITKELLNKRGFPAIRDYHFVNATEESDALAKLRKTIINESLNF

binding result | Binder
no binding | B2
no binding | B3
no binding | B6
no binding | B4

The binders below were run against LRRK2 C-terminal subdomain of COR (COR-B) (Homo sapiens, UniProt Q5S007) (assay: ELISA).

binding result | Binder
no binding | B2
no binding | B3
no binding | B6
no binding | B4

Each binder was assayed against LRRK2 kinase-WD40 (K-WD40) two-domain construct (Homo sapiens, UniProt Q5S007) (assay: ELISA).

binding result | Binder
no binding | B2
no binding | B3
no binding | B6
no binding | B4

Each binder was assayed against LRRK2 Roc-COR-Kinase-WD40 (RCKW) domain construct (Homo sapiens, UniProt Q5S007, biotinylated (in the BLI experiment)) (assay: BLI).

Kd [nM] | binding result | Binder
39 ± 4 |  | B5
 | no binding | B2
 | no binding | B3
 | no binding | B6
5 ± 1 |  | B7
17 ± 7 |  | B8
 | no binding | B4
5 ± 1 |  | B9
2.6 ± 0.3 |  | B10
18 ± 2 |  | B11

Each binder was assayed against T1, full-length human LRRK2 (leucine-rich …) (assay: enzyme kinetics).

Ki [nM] | Kiu^app (apparent Ki for ATP-bound LRRK2) [nM] | Binder
16000 | 30000 | B5
9000 | 72000 | B8
5000 | 8000 | B9

Target: T1, full-length human LRRK2 (leucine-rich …)
Test: MST
Remark: another data set of the same source

Kd [nM] | Binder
91 ± 28 | B12
78 ± 25 | B13
48 ± 11 | B14
79 ± 19 | B15
145 ± 55 | B16
67 ± 24 | B17
83 ± 24 | B18
26 ± 10 | B19

The binders below were run against T1, full-length human LRRK2 (leucine-rich …) (assay: BLI).

Kd [nM] | Binder
55 ± 12 | B5
37 ± 4 | B2
16 ± 8 | B3
12 ± 3 | B6
10 ± 1 | B7
20 ± 5 | B8
2 ± 0.3 | B4
8 ± 1 | B9
2.5 ± 0.3 | B10
58 ± 18 | B11
